# In patent US20060029603A1 (GlaxoSmithKline, published 2006):
# Where a chain is given by its changes, count along the chain named.
# B1: H700L11 (antibody, human IgG1, kappa, V domains shown)
# VH: QVQLVQSGAEVKKPGASVKVSCKASGYTFTSYWMHWVRQAPGQGLEWIGNINPSNGGTNYNEKFKSRATLTVDKSTSTAYMELSSLRSEDTAVYYCELGQGYWGQGTLVTVSS
# VL: DIVITQSPLSLPVTLGQPASISCRSSKSLLYKDGKTYLNWFQQRPGQSPQLLIYLMSTRASGVPDRFSGGGSGTDFTLKISRVEAEDVGVYYCQQLVEYPLTFGQGTKLEIKR
# B2: HcL11 (antibody, human IgG1, kappa)
# heavy: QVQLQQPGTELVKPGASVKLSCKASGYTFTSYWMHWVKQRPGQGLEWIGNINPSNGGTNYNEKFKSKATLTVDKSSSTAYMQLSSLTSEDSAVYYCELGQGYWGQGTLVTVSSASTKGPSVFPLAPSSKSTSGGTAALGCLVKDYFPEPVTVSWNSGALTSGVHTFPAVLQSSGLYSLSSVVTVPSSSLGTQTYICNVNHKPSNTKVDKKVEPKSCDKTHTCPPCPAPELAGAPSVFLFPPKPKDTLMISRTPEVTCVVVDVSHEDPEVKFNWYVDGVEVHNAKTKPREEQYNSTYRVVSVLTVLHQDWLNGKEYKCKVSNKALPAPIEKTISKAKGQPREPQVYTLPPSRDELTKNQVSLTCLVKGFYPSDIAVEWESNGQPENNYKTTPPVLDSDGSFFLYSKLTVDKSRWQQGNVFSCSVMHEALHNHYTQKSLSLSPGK
# light: DIVITQSPLSLPVTLGQPASISCRSSKSLLYKDGKTYLNWFQQRPGQSPQLLIYLMSTRASGVPDRFSGGGSGTDFTLKISRVEAEDVGVYYCQQLVEYPLTFGQGTKLEIKRTVAAPSVFIFPPSDEQLKSGTASVVCLLNNFYPREAKVQWKVDNALQSGNSQESVTEQDSKDSTYSLSSTLTLSKADYEKHKVYACEVTHQGLSSPVTKSFNRGEC
# notes: Chimeric heavy chain Hc paired with humanised light chain L11; The pairing is read from the name
# B3: HcL13 (antibody, human IgG1, kappa)
# heavy: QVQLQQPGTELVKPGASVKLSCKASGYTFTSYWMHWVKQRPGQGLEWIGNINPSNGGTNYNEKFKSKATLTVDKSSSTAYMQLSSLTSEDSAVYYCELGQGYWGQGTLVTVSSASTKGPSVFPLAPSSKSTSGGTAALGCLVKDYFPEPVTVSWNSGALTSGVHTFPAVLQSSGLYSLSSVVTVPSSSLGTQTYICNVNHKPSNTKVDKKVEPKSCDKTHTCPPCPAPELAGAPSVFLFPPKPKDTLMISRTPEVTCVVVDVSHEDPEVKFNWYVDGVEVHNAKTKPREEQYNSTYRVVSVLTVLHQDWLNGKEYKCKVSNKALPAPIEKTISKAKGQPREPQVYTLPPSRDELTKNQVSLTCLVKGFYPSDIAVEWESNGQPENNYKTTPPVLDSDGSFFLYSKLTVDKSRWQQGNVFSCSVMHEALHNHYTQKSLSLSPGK
# light: B2 light with I4M
# notes: Chimeric heavy chain Hc paired with humanised light chain L13; The pairing is read from the name
# B4: H6L6 (antibody, human IgG1, kappa, V domains shown)
# VH: B1 VH with L70M, V72R, K74T
# VL: B1 VL with I4M, L15P, Q17E, Q42L, G70S, Q105G, L109V
# B5: H10L13 (antibody, V domains shown)
# VH: B1 VH with V20L, R38K
# VL: DIVMTQSPLSLPVTLGQPASISCRSSKSLLYKDGKTYLNWFQQRPGQSPQLLIYLMSTRASGVPDRFSGGGSGTDFTLKISRVEAEDVGVYYCQQLVEYPLTFGQGTKLEIK
# B6: H5L6 (antibody, human IgG1, kappa, V domains shown)
# VH: B1 VH with I48M, A68V, L70M, V72R, K74T
# VL: B1 VL with I4M, L15P, Q17E, Q42L, G70S, Q105G, L109V
# B7: H6L14 (antibody, human IgG1, kappa)
# heavy: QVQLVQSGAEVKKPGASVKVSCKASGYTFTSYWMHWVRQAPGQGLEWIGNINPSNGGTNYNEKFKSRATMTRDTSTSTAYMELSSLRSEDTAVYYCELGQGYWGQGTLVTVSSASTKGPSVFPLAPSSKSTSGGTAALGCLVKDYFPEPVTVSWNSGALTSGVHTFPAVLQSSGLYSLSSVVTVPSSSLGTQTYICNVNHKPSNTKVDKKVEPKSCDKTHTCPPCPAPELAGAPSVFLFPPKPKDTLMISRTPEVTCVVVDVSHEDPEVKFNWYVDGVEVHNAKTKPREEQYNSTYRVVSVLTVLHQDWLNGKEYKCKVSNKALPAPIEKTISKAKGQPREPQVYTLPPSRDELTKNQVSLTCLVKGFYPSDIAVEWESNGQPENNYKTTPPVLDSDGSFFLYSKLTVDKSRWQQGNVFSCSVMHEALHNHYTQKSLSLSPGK
# light: B2 light with I4M, Q42L
# notes: Tested as CHO-K1 supernatant
# B8: H6L15 (antibody, human IgG1, kappa, V domains shown)
# VH: B1 VH with L70M, V72R, K74T
# VL: B1 VL with I4M, Q42L, P64S
# notes: Tested as CHO-K1 supernatant
# B9: H17L16 (antibody, human IgG1, kappa)
# heavy: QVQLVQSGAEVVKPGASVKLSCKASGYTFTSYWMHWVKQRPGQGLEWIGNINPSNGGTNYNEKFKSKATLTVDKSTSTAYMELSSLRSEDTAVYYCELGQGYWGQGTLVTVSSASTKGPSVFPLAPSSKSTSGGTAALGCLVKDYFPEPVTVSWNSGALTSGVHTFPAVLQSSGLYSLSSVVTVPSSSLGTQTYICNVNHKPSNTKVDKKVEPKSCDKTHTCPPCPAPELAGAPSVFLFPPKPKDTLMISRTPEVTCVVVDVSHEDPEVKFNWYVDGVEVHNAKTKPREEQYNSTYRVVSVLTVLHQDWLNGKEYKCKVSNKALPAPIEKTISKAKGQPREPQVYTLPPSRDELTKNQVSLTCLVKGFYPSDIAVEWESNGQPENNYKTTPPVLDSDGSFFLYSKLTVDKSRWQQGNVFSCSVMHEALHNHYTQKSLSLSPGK
# light: B2 light with I4M, L11N, A19V, Q42L
# notes: Humanised 2A10
# Molecular target: T1, GST-human NOGO-A56 (human, UniProt P08515 1-218 = GST)
# T1 construct: GST-tagged fusion expressed in E. coli BL21 and purified on glutathione-sepharose; coated on ELISA plates or amine-coupled to a CM5 chip; also called hNOGO; recombinant human NOGO
# T1 sequence (P08515 1-218, tags or fused parts left off): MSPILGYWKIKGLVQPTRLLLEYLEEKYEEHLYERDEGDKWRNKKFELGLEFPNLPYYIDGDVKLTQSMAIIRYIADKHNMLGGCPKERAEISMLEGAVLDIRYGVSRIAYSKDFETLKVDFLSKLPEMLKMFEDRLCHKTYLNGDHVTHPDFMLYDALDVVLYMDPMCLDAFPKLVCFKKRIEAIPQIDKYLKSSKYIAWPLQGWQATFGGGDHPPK
# Experiment: SPR (Biacore 3000), GST-human NOGO-A56 on CM5, antibody as analyte; single experiment
# Method: (§1) hNOGO (GST-human NOGO-A56) was immobilised to a CM5 chip by primary amine coupling using the Biacore Wizard program designed for targeted immobilisation levels. The CM5 sensor surface was activated by passing a solution of 50 mM N-hydroxy-succinimide (NHS) and 200 mM N-ethyl-N′-dimethylaminopropyl […] (EDC). Then hNOGO in sodium acetate buffer, pH5.0 or pH 4.5, was passed over the chip and immobilised. After immobilisation was complete any still activated esters were blocked by an injection of 1M ethanolamine hydrochloride, pH8.5.
# (§2) The anti-NOGO mAbs were diluted down in HBS-EP (10 mM HEPES, pH 7.4, 150 mM NaCl, 3 mM EDTA, and 0.005% P-20 surfactant) and binding studies were carried out at range of defined antibody concentrations. All runs were referenced against a blanked sensor surface (one that had been activated and blocked as described earlier but had no addition of ligand). Analysis of binding was carried out using the BIAevaluation kinetic analysis software version 4.1. Biacore analysis of other antibodies of the invention essentially followed the same protocol as described herein.
Binder,Kd [nM],koff [s⁻¹],kon [M⁻¹ s⁻¹]
B1,19.4,0.0233,1.19e+06
B2,3.55,0.0134,3.78e+06
B3,1.98,0.00938,4.8e+06
B4,21.4,0.0254,1.2e+06
B5,12.9,0.0212,1.64e+06
B6,30.3,0.047,1.5e+06

# Molecular target: T1, GST-human NOGO-A56
# Experiment: SPR (Biacore) off-rate ranking, CHO-K1 transient supernatant over GST-human NOGO-A56 chip; single experiment
# Method: as §1
# The hNOGO chip was prepared as for kinetic analysis. Cell supernatants where taken directly from transient transfections of CHO-K1 cells. These were passed directly over the sensor surface and the interaction measured. A mock transfected cell supernatant was used for double referencing to remove any artefacts due to the tissue culture media. All runs were referenced against a blanked sensor surface (one that had been activated and blocked as described earlier but had no addition of ligand). Analysis of binding was carried out using the BIAevaluation kinetic analysis software version 4.1.
row,Binder,koff [s⁻¹]
1,B7,0.0457
2,B8,0.0211

# Molecular target: T1, GST-human NOGO-A56
# Experiment: SPR (Biacore 3000), GST-human NOGO-A56 amine-coupled to CM5, antibody as analyte; mean (SD) of four experiments
# Method: The binding kinetics of the anti-NOGO monoclonal antibody (mAb) to recombinantly expressed human NOGO-A (GST-human NOGO-A56) was analysed using the Biacore3000 biosensor. The hNOGO-A chip was prepared as follows:
# as §1, §2
Binder,Kd [nM],koff [s⁻¹],kon [M⁻¹ s⁻¹]
B9,1.82,0.0061,3.38e+06
